Results from patent publication US20210162028A1, “Methods for Inducing Intermittent Fasting and Modulating Autophagy” (The Hong Kong Polytechnic University, priority 2019, published 2021).
“Also recorded” adds a separate entry of the source.

Tests used:
[1] = Daily food intake / 7-day intermittent fasting cycle in mice; assay type: in vivo, mouse
Text: One of the most noticeable effects of intermittent fasting is reduction of bodyweight. […] Specifically, C57BL/6J, which is the most commonly used mouse strain for polygenic obesity model, was used in the study. It is well-reported that C57BL/6J male mice feeding on a high-fat diet will have prominent weight gain, become obese and develop hyperinsulinemia, hyperglycemia, impaired glucose tolerance and insulin resistance [Gallou-Kabani et al., 2007, Obesity 15(8):1996-2005]. Obesity was induced in C57BL/6J male mice via feeding ad libitum a high-fat diet containing 60 kcal % fat (HFD; Research Diets, D12492) for 12-14 weeks starting from 5-week old. These mice are referred as diet-induced obese (DIO) mice. DIO mice were stratified according to bodyweight into 2 groups. […] Both groups of mice continued to feed ad libitum on the HFD throughout the treatment period. One group of age-matched C57BL/6J male mice feeding ad libitum on an ordinary rodent chow diet (CD; LabDiet, 50IF/6F) and injected with vehicle served as the lean control [CD (vehicle) group]. Food intake and bodyweight of mice were measured daily. […] DIO mice were injected with rhArg on Day 0, which was Day 7 of the previous cycle. Similarly, Day 7 of the cycle shown in FIG. 1B was Day 0 of the next cycle. […] Bodyweight gain is one of the biomarkers related to aging.
C57BL/6J male mice were fed a high-fat diet from 5-week old for 12 weeks. They were then stratified into 3 groups according to their bodyweight and individually caged: (i) one group of mice received i.p. injection of 600 U N-ABD094-rhArg (SEQ ID NO: 50) once a week [HFD (rhArg) group] and was fed ad libitum the HFD for 5 weeks; (ii) one group of mice received i.p. injection of saline once a week, and was fed a predetermined amount of HFD on each day to artificially create a 7-day intermittent fasting cycle that mimics the pattern of food intake of mice administered once a week with rhArg [HFD (artificial IF) group)]; (iii) one group of mice was injected with saline once a week and was fed ad libitum the HFD [HFD (vehicle) group].

Rotarod test = assay type: in vivo, mouse
hepatocellular carcinoma = experiment: Frequency of hepatocellular carcinoma at autopsy; assay type: in vivo, mouse
Text: Development of neoplasm in the liver is one of the major characteristics of aging in C57BL/6J male mice with long-term feeding on a HFD, which may be related to the development of severe non-alcoholic fatty liver disease. Treatment with N-ABD094-rhArg [SEQ ID NO: 50] can effectively reverts hepatic steatosis and lower serum concentrations of liver damage biomakers ALT and AST (FIG. 7). Autopsy performed at the end of experiment confirmed the presence of hepatocellular carcinoma (FIG. 28A) in around 40% of C57BL/6J male mice that had been fed on a HFD for 46 weeks (12+34 weeks) starting from 5-week old [HFD (vehicle) group in FIG. 1] (FIG. 28B). The incidence rate even increased to 100% in mice fed on the HFD for 61 weeks (12+49 weeks) [HFD (vehicle) group in FIG. 3] (FIG. 28C). […] These findings support that rhArg has potent effects on prevention of liver cancer.

hepatocyte = experiment: Transmission electron microscopy of liver (hepatocytes); assay type: in vivo, mouse; conditions: for TEM of liver: autophagosomes / TEM of liver: lipid droplets: DIO C57BL/6J male mice on HFD, 3 weeks, Day 3
Text: FIG. 47 illustrates the liver examined by transmission electron microscopy at Day 1, Day 3, Day 5 and Day 7 of the 7-day intermittent after N-ABD094-rhArg injection.
The presence of autophagosome in liver after treatment for 3 weeks were examined by TEM (FIGS. 62, 63 and 64).
The presence of autophagosome in liver after treatment for 3 weeks were examined by transmission electron microscopy (FIGS. 71 and 72).

[2] = Half-life / therapeutic duration in circulation; parameters: species or system mice; conditions: mouse, in vivo
Text: As used herein, the term “half-life” or “½-life” refers to the time that would be required for the concentration of an agent, e.g., a fusion protein or arginine depleting agent as described herein, to fall by half in vitro or in vivo, for example, after injection into a mammal. In certain instances, the concentration of plasma arginine, after injection, is used herein as a proxy indicator of the half-life of the agent. In such instances, the term “therapeutic duration” is used to refer to the length of time a specified dosage of the arginine depleting agent is able to maintain the plasma concentration of arginine below a specified threshold concentration that a desired therapeutic effect is observed. In certain embodiments, the threshold concentration of plasma arginine is below 50 μM, below 40 μM, below 30 μM, below 20 μM, below 10 μM, below 5 μM, below 3 μM, or at a concentration below the detection limit of conventional analytical instrumentation.
Importantly, the present invention used a new ABD fusion approach to join an ABD and an arginase together so that arginase activity can be retained. Stable and soluble arginase-ABD fusion molecules that can bind to FcRn in a pH-dependent manner were successfully generated, allowing for efficient endosomal recycling. […] Taken together, a variety of different approaches are available for fine-tuning the pharmacokinetic properties of arginases, ensuring appropriate residence time in circulation for different disease conditions. Another key issue in the development of any therapeutic protein is to minimize immunogenicity to avoid adverse effects. Thus, the observed low immunogenicity of human arginase and the successful deimmunization of ABD (e.g. ABD094), which was also used in the present disclosure as gene fusion partner to extend the in vivo half-life, are important.

[3] = DIO C57BL/6J male mice on HFD, about 600 U i.p. once a week, 34 weeks
[4] = DIO C57BL/6J male mice on HFD, about 600 U once a week, 49 weeks
[5] = 300 U/week rhArg and/or 300 mg/kg metformin
[6] = rhArg weekly and/or 0.33 mg RA daily
[7] = HFD-fed male mice, 600 U once a week, 4 weeks

B1: N-ABD094-rhArg: recombinant human arginase fused to albumin binding domain ABD094 (SEQ ID NO: 50); engineered long-acting arginine-depleting enzyme (protein)
chain: MHHHHHHDEAVDANSLAEAKEAANAELDSYGVSDFYKRLIDKAKTVEGVEALKDAILAALPSGSNNNNNNGSGGMSAKSRTIGIIGAPFSKGQPRGGVEEGPTVLRKAGLLEKLKEQECDVKDYGDLPFADIPNDSPFQIVKNPRSVGKASEQLAGKVAEVKKNGRISLVLGGDHSLAIGSISGHARVHPDLGVIWVDAHTDINTPLTTTSGNLHGQPVSFLLKELKGKIPDVPGFSWVTPCISAKDIVYIGLRDVDPGEHYILKTLGIKYFSMTEVDRLGIGKVMEETLSYLLGRKKRPIHLSFDVDGLDPSFTPATGTPVVGGLTYREGLYITEEIYKTGLLSGLDIMEVNPSLGKTPEEVTRTVNTAVAITLACFGLAREGNHKPIDYLNPPK
modifications: N-ABD094-rhArg, Synthesized in the Lab
notes: engineered long-acting arginine-depleting enzyme
Pattern of food intake (intermittent fasting cycles) ([1]; 16-month old DIO C57BL/6J male mice on HFD, about 600 U once a week, 25 weeks): induce repetitive 7-day intermittent fasting cycles
Pattern of food intake (intermittent fasting cycles) ([1]; 17-month old C57BL/6J male mice on chow diet, about 600 U once a week, 21 weeks): induce repetitive 7-day intermittent fasting cycles
Pattern of food intake (intermittent fasting cycles) ([1]; 25-month old C57BL/6J male mice on chow diet, about 600 U once a week, 30 weeks): prominent repetitive 7-day intermittent fasting cycles
Pattern of food intake (intermittent fasting cycle) ([1]; DIO C57BL/6J male mice on HFD, 200 U rhArg i.p. once a week and/or 0.33 mg RA daily): weak 7 days intermittent fasting cycle
Total food intake per week, less than HFD (vehicle) group ([1]; DIO C57BL/6J male mice on HFD, 200 U rhArg i.p. once a week and/or 0.33 mg RA daily by gastric feeding, 10 weeks): slight, but insignificant decrease
Pattern of food intake (intermittent fasting cycle) ([1]; DIO C57BL/6J male mice on HFD, 200 U rhArg i.p. once a week and/or 0.33 mg RA daily, listed as rhArg): 7-day pattern of decreased food intake followed by an increase of food intake, but the magnitude was less than HFD (rhArg+RA) group
Pattern of food intake (intermittent fasting cycle) ([1]; DIO C57BL/6J male mice on HFD, 300 U rhArg i.p. once a week and/or 300 mg/kg metformin daily): weak intermittent fasting cycle
Total food intake per week, less than HFD (vehicle) group ([1]; DIO C57BL/6J male mice on HFD, 300 U rhArg i.p. once a week and/or 300 mg/kg metformin daily by gastric feeding, 9 weeks): did not induce significant change in total food intake per week
Pattern of food intake (intermittent fasting cycle) ([1]; DIO C57BL/6J male mice on HFD, 300 U rhArg i.p. once a week and/or 300 mg/kg metformin daily, listed as rhArg): 7-day pattern of decreased food intake followed by an increase of food intake, but the magnitude was less than HFD (rhArg+Met) group
Total food intake per week, less than HFD (vehicle) group ([1]; DIO C57BL/6J male mice on HFD, 600 U i.p. once a week, 5 weeks (artificial IF experiment)): 26%
Reduction of total food intake per week ([1]; DIO C57BL/6J male mice on HFD, 600 U i.p. once a week, 5 weeks (reduced daily food intake experiment)): 30%
Pattern of food intake (intermittent fasting cycles) [1, 3]: repetitive cycles of intermittent fasting; also recorded: repetitive 7-day intermittent fasting cycles
Total food intake per week, less than HFD (vehicle) group [1, 3]: about 30%
Pattern of food intake (intermittent fasting cycles) [1, 4]: repetitive 7-day intermittent fasting cycles
Total food intake per week, less than HFD (vehicle) group [1, 4]: about 29%
Pattern of food intake (intermittent fasting cycles) ([1]; DIO C57BL/6J male mice on HFD, about 600 U once a week, 49 weeks, listed as rhArg): repetitive cycles of intermittent fasting
Pattern of food intake (intermittent fasting cycles) ([1]; DIO ICR female mice on HFD, about 1200 U i.p. once a week, 56 weeks): repeatedly occurring in ICR female mice throughout the 56 weeks of treatment period; also recorded: repetitive 7-day intermittent fasting cycles
Rotarod test: latency to fall (Rotarod test; DIO C57BL/6J male mice on HFD, weekly for 30 weeks): latency similar to mice in CD (vehicle) group
Rotarod test: performance (Rotarod test; DIO ICR female mice on HFD, weekly, at 55 weeks): significantly better than mice in HFD (vehicle) group
Development of hepatocellular carcinoma (hepatocellular carcinoma; DIO C57BL/6J male mice on HFD, weekly for 34 weeks, vehicle around 40%): none of the mice developed hepatocellular carcinoma
Development of hepatocellular carcinoma (hepatocellular carcinoma; DIO C57BL/6J male mice on HFD, weekly for 49 weeks, vehicle 100%): none of the mice developed hepatocellular carcinoma
Development of hepatocellular carcinoma (hepatocellular carcinoma; DIO ICR female mice on HFD, weekly for 56 weeks, vehicle over 30%): none of the mice in HFD (rhArg) group developed hepatocellular carcinoma; also recorded: effectively prevent the development of hepatocellular carcinoma
TEM of liver: autophagosomes (hepatocyte; [5]): autophagosome was rarely seen
TEM of liver: lipid droplets (hepatocyte; [5]): significant decrease in lipid droplet size
TEM of liver: autophagosomes (hepatocyte; 300 U/week rhArg and/or 300 mg/kg metformin, listed as N-ABD-rhArg (SEQ ID NO: 50)): no autophagosome is observed
TEM of liver: autophagosomes (hepatocyte; [6]): autophagosome was rarely seen
TEM of liver: lipid droplets (hepatocyte; [6]): significant decrease in lipid droplet size
TEM of liver: autophagosomes (hepatocyte; rhArg weekly and/or 0.33 mg RA daily, listed as N-ABD-rhArg (SEQ ID NO: 50)): no autophagosome is observed
TEM of liver, Day 1 of the 7-day cycle (hepatocyte; [7]): autophagosomes and autolysosomes were found in the hepatocye
TEM of liver, Day 3 of the 7-day cycle (hepatocyte; [7]): extensive lipophagy was observed
TEM of liver, Day 5 of the 7-day cycle (hepatocyte; [7]): autolysosome and lipophagy became rare
TEM of liver, Day 7 of the 7-day cycle (hepatocyte; [7]): no autophagosome and no lipophagy was observed
Therapeutic duration (and half-life) [2]: much longer than BHA and BAH
